Measurements: patent publication US20140120578

Key:
Assay in all cases: cell_activity
[1] = tested on: FucT2_T01 TALEN left monomer (synthetic); conditions: yeast assay as pair, full target SEQ 67, 37 C; 0.8 at 30 C
[2] = tested on: FucT1_T02/FucT2_T02 TALEN right monomer (synthetic)
[3] = tested on: FucT2_T01 TALEN right monomer (synthetic); conditions: yeast assay as pair, full target SEQ 67, 37 C; 0.8 at 30 C
[4] = tested on: FucT1_T02 TALEN left monomer (synthetic); conditions: for activity: N. benthamiana protoplasts
[5] = tested on: FucT2_T02 TALEN left monomer (synthetic); conditions: for activity: N. benthamiana protoplasts
[6] = tested on: FucT1_T01 TALEN left monomer (synthetic); conditions: yeast assay as pair, full target SEQ 66 (right half printed with CTAAGC there vs AATAAGC in Table 1), 37 C; 0.6 at 30 C
[7] = tested on: XylT_T03 TALEN left monomer (synthetic)
[8] = tested on: FucT_T04 TALEN left monomer (synthetic); conditions: yeast assay as pair, targets SEQ 70 and 71 (same value), 37 C; 0.5 at 30 C
[9] = tested on: XylT_T04 TALEN left monomer (synthetic)
[10] = tested on: XylT_T04 TALEN right monomer (synthetic)
[11] = tested on: FucT_T04 TALEN right monomer (synthetic); conditions: yeast assay as pair, targets SEQ 70 and 71 (same value), 37 C; 0.5 at 30 C
[12] = tested on: FucT1_T01 TALEN right monomer (synthetic); conditions: yeast assay as pair, full target SEQ 66 (right half printed differently from Table 1), 37 C; 0.6 at 30 C
[13] = tested on: XylT_T03 TALEN right monomer (synthetic)
[14] = N. benthamiana protoplasts, pair, XylT1 locus, XylT2 63.9%
[15] = yeast assay as pair, full target SEQ 65, 37 C, 0.9 at 30 C

## TGAGATCGTCGTCAAAT (double strand) [FucT2_T01 left half-site]
[1]
  activity (relative to I-SceI): 0.9

## CTCTGTTCGTTGCCCTA (double strand) [FucT_T02 right half-site (top strand as printed)]
[2]; N. benthamiana protoplasts, pair FucT1_T02 at FucT1, 24.7% at FucT2, with FucT2_T02 left monomer 46.5/45.0%
  activity: 39.2 % NHEJ
[2]; yeast assay as pair with FucT1 or FucT2 left monomer, targets SEQ 68 and 69, 37 C, 0.7 at 30 C
  activity (relative to I-SceI): 0.9

## GATAAACAATGGCGCAA (double strand) [FucT2_T01 right half-site (top strand as printed)]
[3]
  activity (relative to I-SceI): 0.9

## TTCAAACGCACCCGATA (double strand) [FucT2_T02 left half-site]
[4]; pair FucT1_T02, FucT2 locus (1-bp mismatch), control 0.14%
  activity: 24.7 % NHEJ
[5]; pair FucT2_T02, FucT2 locus, control 0.14%
  activity: 45 % NHEJ
[5]; yeast assay as pair, full target SEQ 69, 37 C, 0.7 at 30 C
  activity (relative to I-SceI): 0.9

## TGAGATCGGCGTCAAAT (double strand) [FucT1_T01 left half-site]
[6]
  activity (relative to I-SceI): 0.8

## TTCTTGTTTCTCTCTTC (double strand) [XylT_T03 left half-site]
[7]; N. benthamiana protoplasts, pair, XylT1 locus, XylT2 28.2%, controls 0.36/0.06%
  activity: 34.4 % NHEJ
[7]; yeast beta-galactosidase assay as pair, full target SEQ 64, 37 C, 0.7 at 30 C
  activity (relative to I-SceI): 0.9

## TTGCCTCTGTTCGTTGC (double strand) [FucT_T04 left half-site]
[8]
  activity (relative to I-SceI): 0.6

## TCTCTTCGCTCTCAACT (double strand) [XylT_T04 left half-site]
[9]; [14]
  activity: 73.8 % NHEJ
[9]; [15]
  activity (relative to I-SceI): 0.9

## TTCAAACGCACCCAATA (double strand) [FucT1_T02 left half-site]
[4]; pair FucT1_T02, FucT1 locus, control 0.79%
  activity: 39.2 % NHEJ
[4]; yeast assay as pair, full target SEQ 68, 37 C, 0.7 at 30 C
  activity (relative to I-SceI): 0.9
[5]; pair FucT2_T02, FucT1 locus (1-bp mismatch), control 0.79%
  activity: 46.5 % NHEJ

## CTCTACTTCTCTTCCCA (double strand) [XylT_T04 right half-site (top strand as printed)]
[10]; [14]
  activity: 73.8 % NHEJ
[10]; [15]
  activity (relative to I-SceI): 0.9

## TTTCTGGTTCGACTCGA (double strand) [FucT_T04 right half-site (top strand as printed)]
[11]
  activity (relative to I-SceI): 0.6

## AATAAGCAATGGCGCAA (double strand) [FucT1_T01 right half-site (top strand as printed)]
[12]
  activity (relative to I-SceI): 0.8

## ATCACTCTCTATCTCTA (double strand) [XylT_T03 right half-site (top strand as printed)]
[13]; N. benthamiana protoplasts, pair, XylT1 locus, XylT2 28.2%
  activity: 34.4 % NHEJ
[13]; yeast assay as pair, full target SEQ 64, 37 C, 0.7 at 30 C
  activity (relative to I-SceI): 0.9
